Source: US20090123480A1 (REGENTS OF THE UNIVERSITY OF MICHIGAN, published 2009)
One block for each molecule: values may come before it. Non-standard residues stand in square brackets, D forms with d. No end group written: not given here. *: point of attachment. 5FAM = O=C1OC2(c3ccc(O)cc3Oc3cc(O)ccc32)c2ccc(C(=O)*)cc21; Abu = CC[C@H](N)C(=O)O

How the values were obtained:
[1] = target: caspase-7 (UniProt P55210); experiment: cell-based or functional assay
[2] = target: caspase-3 (UniProt P42574); experiment: cell-based or functional assay
[3] = target: human XIAP protein (residues 120-356) (human) (UniProt P98170); experiment: fluorescence polarization competition against the Smac2-F tracer
[4] = target: T1, recombinant XIAP BIR3 protein of human XIAP (residues 241-356) fused to His-tag (human, UniProt P98170 241-356); experiment: fluorescence polarization, direct binding of the labelled peptide
T1 construct: range 241-356; not shown: His-tag
T1 sequence (P98170 241-356 limits assumed): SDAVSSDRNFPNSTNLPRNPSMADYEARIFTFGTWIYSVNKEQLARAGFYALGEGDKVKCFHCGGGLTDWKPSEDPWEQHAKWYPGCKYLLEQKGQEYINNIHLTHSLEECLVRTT

Chain of human XIAP protein (residues 120-356) (human) (P98170 120-356 limits assumed): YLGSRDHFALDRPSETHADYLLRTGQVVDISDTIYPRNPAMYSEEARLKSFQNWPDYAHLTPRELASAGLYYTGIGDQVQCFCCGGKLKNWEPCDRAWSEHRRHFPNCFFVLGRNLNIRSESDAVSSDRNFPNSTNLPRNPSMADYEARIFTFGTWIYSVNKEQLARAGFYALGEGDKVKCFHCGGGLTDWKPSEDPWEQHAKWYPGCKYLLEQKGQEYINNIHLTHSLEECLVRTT
Chain of caspase-7 (P55210 24-303 limits assumed): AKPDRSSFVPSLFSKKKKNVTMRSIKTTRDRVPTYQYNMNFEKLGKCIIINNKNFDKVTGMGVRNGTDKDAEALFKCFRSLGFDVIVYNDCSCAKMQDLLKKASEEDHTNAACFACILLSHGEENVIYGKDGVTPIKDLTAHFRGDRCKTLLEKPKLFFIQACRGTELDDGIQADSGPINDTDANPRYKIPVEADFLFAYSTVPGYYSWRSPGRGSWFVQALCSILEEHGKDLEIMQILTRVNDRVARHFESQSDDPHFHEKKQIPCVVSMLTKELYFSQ
Chain of caspase-3 (P42574 29-277 limits assumed): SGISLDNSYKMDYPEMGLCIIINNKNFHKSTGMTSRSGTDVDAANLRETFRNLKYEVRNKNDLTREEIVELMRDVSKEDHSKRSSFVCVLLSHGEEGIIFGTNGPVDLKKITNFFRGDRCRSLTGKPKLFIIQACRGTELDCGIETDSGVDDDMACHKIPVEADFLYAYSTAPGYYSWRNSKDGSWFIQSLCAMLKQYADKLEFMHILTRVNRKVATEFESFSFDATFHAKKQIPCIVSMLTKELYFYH

inhibition of caspase-3/-7 activity, cell-free functional assay [1]: 50 nM
inhibition of caspase-3/-7 activity, cell-free functional assay [2]: 50 nM
Molecule: human XIAP protein (residues 120-356) (from UniProt P98170 120-356)

fold less potent than the small molecule SH-164 (IC50 […] nM) in the competitive binding assay [3]: > 5000 fold
Molecule: natural Smac peptide AVPI (SEQ ID NO: 1)

Kd [4]: 17.9 nM
B1: mutated Smac peptide AbuRPF-K-(5-Fam)-NH2 (termed SM5F) (peptide)
peptide: [Abu]RPFK(5FAM)-NH2
modifications: N-terminus assumed
SMILES: CC[C@H](N)C(=O)N[C@@H](CCCNC(=N)N)C(=O)N1CCC[C@H]1C(=O)N[C@@H](Cc1ccccc1)C(=O)N[C@@H](CCCCNC(=O)c1ccc2c(c1)C(=O)OC21c2ccc(O)cc2Oc2cc(O)ccc21)C(N)=O
notes: Fluorescent tracer of the XIAP BIR3 fluorescence polarization assay; also called SM5F peptide
